Experimental data: article PMC9482650, “Quantitative fragmentomics allow affinity mapping of interactomes” (Nature Communications, 2022)

Legend:
Experiment in all cases: holdup assay
Parameters in all cases: key: below the threshold = too weak to quantify, mostly under pKd 3.1 to 4
Details in all cases: plain residues with an end cap or a label only (N-terminal biotin on a linker: ttds)
[1] = biological target: T1, APBA3_2, O96018
T1 sequence (O96018 480-570, limits assumed, looked up): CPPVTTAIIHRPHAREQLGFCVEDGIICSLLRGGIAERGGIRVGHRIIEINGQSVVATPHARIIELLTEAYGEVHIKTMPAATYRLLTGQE

[2] = biological target: T2, DVL1, O14640
T2 sequence (O14640 246-333, limits assumed, looked up): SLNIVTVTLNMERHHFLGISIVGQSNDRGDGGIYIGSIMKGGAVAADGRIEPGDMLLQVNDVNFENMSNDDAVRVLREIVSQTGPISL

[3] = biological target: GIPC3, Q8TF64
[4] = biological target: T3, GRIP1_1, Q9Y3R0
T3 sequence (Q9Y3R0 48-146, limits assumed, looked up): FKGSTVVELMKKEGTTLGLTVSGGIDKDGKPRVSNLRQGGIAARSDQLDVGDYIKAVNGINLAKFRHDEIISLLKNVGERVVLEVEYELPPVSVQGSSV

[5] = biological target: Inadl_7, Q8NI35
[6] = biological target: LMO7, Q8WWI1
[7] = biological target: MAGI1_3, Q96QZ7
[8] = biological target: MAGI3_5, Q5TCQ9
[9] = biological target: T4, MLLT4, P55196
T4 sequence (P55196 1002-1103, limits assumed, looked up): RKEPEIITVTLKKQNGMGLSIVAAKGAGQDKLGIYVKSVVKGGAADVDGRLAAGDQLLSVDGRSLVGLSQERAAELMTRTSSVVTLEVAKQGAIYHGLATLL

[10] = biological target: T5, MPDZ_13, O75970
T5 sequence (O75970 1982-2070, limits assumed, looked up): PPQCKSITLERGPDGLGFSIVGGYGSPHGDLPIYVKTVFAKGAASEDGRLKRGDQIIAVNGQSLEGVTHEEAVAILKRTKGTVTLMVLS

[11] = biological target: T6, MPDZ_3, O75970
T6 sequence (O75970 372-473, limits assumed, looked up): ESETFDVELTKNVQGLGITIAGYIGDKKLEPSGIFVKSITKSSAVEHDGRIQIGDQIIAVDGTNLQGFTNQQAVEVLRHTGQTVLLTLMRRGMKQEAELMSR

[12] = biological target: T7, MPDZ_6, O75970
T7 sequence (O75970 1003-1099, limits assumed, looked up): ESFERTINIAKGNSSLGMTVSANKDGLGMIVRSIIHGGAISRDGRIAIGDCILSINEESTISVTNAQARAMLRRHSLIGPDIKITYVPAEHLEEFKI

[13] = biological target: T8, NHERF1_1, O14745
T8 sequence (O14745 9-104, limits assumed, looked up): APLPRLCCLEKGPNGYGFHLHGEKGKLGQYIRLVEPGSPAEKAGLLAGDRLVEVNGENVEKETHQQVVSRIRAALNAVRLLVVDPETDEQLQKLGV

[14] = biological target: T9, NHERF3_2, Q5T2W1
T9 sequence (Q5T2W1 129-225, limits assumed, looked up): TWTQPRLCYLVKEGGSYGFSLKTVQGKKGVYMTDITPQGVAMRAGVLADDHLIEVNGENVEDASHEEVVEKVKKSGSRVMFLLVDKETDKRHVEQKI

[15] = biological target: PARD3_1, Q8TEW0
[16] = biological target: T10, PARD6B, Q9BYG5
T10 sequence (Q9BYG5 152-260, limits assumed, looked up): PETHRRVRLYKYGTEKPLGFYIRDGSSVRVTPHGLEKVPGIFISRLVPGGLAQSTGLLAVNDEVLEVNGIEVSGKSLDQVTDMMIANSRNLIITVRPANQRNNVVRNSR

[17] = biological target: T11, PDZD11, Q5EBL8
T11 sequence (Q5EBL8 42-139, limits assumed, looked up): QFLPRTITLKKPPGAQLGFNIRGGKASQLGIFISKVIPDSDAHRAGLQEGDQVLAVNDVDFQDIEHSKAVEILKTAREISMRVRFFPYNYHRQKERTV

[18] = biological target: PREX1_1, Q8TCU6
[19] = biological target: T12, PTPN13_4, Q12923
T12 sequence (Q12923 1783-1878, limits assumed, looked up): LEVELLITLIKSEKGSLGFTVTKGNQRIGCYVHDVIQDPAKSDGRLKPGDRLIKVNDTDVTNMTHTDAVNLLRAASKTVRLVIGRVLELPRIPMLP

[20] = biological target: RIMS2, Q9UQ26
[21] = biological target: T13, SHANK2, Q9UPX8
T13 sequence (Q9UPX8 621-730, limits assumed, looked up): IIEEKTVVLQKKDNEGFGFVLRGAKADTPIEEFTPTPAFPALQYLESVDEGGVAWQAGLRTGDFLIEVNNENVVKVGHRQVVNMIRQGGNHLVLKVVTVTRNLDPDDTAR

[22] = biological target: T14, SHANK3, Q9BYB0
T14 sequence (Q9BYB0 641-750, limits assumed, looked up): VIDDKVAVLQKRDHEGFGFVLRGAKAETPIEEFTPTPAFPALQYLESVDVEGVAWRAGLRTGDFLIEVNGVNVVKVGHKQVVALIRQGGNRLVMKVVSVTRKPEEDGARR

[23] = biological target: TJP1_1, Q07157
TJP1_1, Q07157, sequence (Q07157 18-120): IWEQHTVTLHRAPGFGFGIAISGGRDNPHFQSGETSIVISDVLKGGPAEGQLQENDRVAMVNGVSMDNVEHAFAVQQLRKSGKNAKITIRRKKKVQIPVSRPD

RIMS2, Q9UQ26, sequence (Q9UQ26 637-758): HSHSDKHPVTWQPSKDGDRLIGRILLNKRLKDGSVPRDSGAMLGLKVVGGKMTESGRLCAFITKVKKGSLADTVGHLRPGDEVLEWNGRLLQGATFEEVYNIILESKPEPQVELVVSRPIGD
MAGI3_5, Q5TCQ9, sequence (Q5TCQ9 847-941): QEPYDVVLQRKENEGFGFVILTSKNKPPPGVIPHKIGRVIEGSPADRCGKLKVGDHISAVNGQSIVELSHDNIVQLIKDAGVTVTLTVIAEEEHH
LMO7, Q8WWI1, sequence (Q8WWI1 1037-1138): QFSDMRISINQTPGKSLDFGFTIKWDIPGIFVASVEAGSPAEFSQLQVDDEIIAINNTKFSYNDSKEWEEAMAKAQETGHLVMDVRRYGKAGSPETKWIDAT
Inadl_7, Q8NI35, sequence (Q8NI35 1219-1332): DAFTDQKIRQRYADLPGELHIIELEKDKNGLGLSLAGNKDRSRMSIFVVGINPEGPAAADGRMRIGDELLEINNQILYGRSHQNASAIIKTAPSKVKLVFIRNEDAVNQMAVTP
PARD3_1, Q8TEW0, sequence (Q8TEW0 264-372): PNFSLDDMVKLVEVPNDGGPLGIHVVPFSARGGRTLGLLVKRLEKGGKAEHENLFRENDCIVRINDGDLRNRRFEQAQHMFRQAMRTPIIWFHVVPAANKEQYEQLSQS
GIPC3, Q8TF64, sequence (Q8TF64 107-202): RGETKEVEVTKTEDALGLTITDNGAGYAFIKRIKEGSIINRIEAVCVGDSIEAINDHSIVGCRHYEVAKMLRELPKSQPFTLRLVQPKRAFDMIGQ
MAGI1_3, Q96QZ7, sequence (Q96QZ7 638-725): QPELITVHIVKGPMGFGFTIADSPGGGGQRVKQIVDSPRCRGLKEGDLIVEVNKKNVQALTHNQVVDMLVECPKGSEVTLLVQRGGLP
PREX1_1, Q8TCU6, sequence (Q8TCU6 608-718): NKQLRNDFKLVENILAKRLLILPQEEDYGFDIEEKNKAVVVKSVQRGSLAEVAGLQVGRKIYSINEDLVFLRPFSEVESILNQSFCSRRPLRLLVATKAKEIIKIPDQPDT

## PSRDRKETSI [RALBP1, Q15311]
[1]
  pKd: below the threshold
[2]
  pKd: below the threshold
[3]
  pKd: below the threshold
[4]
  pKd: below the threshold
[5]
  pKd: 4.36
[6]
  pKd: below the threshold
[7]
  pKd: below the threshold
[8]
  pKd: below the threshold
[9]
  pKd: below the threshold
[10]
  pKd: below the threshold
[11]
  pKd: below the threshold
[12]
  pKd: below the threshold
[13]
  pKd: below the threshold
[14]
  pKd: below the threshold
[15]
  pKd: below the threshold
[16]
  pKd: below the threshold
[17]
  pKd: below the threshold
[18]
  pKd: below the threshold
[19]
  pKd: below the threshold
[20]
  pKd: below the threshold
[21]
  pKd: below the threshold
[22]
  pKd: below the threshold
[23]
  pKd: below the threshold
